This note sets out measurements from PMC3979729.

The test has as its target TNFR (human (endogenous in primary CD4+ T cells)) (UniProt P19438).
Sequence of UniProt P19438 (P19438 30-455): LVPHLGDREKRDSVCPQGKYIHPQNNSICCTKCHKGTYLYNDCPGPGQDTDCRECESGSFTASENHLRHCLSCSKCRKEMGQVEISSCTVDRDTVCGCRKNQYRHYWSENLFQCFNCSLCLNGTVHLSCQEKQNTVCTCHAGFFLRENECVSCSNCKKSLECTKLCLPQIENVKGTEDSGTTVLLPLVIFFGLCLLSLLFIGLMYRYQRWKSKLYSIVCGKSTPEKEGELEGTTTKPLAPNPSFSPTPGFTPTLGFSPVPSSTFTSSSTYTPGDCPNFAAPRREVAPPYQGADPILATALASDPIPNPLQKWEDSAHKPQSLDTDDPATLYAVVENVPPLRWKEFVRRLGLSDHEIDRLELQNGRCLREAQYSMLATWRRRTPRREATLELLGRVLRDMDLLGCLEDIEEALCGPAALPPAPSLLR

Consider “tumor necrosis factor alpha (TNF-α) (from UniProt P01375 1-233) (ligand)”, for which the other (% necroptosis) stood at 0.3.
